The target of the assay is T1, human FcγRIII (V158).
T1 construct: also called FcγRIIIA-Val158; CD16
Briefly: ELISA of 2H7 variants binding to human FcγRIII (V158). (An ELISA detects its analyte on a solid surface through an enzyme-linked reagent.)

T1 sequence (chain, as listed by the source limits assumed): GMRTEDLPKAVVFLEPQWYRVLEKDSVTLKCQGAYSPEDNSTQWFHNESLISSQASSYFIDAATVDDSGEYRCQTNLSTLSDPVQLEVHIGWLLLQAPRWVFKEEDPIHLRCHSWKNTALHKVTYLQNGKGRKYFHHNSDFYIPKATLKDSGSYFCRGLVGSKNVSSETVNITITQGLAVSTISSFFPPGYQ

B1: 2H7.v16 (antibody, human IgG1, kappa)
light chain: DIQMTQSPSSLSASVGDRVTITCRASSSVSYMHWYQQKPGKAPKPLIYAPSNLASGVPSRFSGSGSGTDFTLTISSLQPEDFATYYCQQWSFNPPTFGQGTKVEIKRTVAAPSVFIFPPSDEQLKSGTASVVCLLNNFYPREAKVQWKVDNALQSGNSQESVTEQDSKDSTYSLSSTLTLSKADYEKHKVYACEVTHQGLSSPVTKSFNRGEC
heavy chain: not shown
notes: Humanized anti-CD20 antibody with no Fc changes; also called humanized 2H7v.16; 2H7 version 16
Take B1: the binding result was “binds”.

B2: 2H7.v375 (antibody, human IgG1, kappa)
light: DIQMTQSPSSLSASVGDRVTITCRASSSVSYMHWYQQKPGKAPKPLIYAPSNLASGVPSRFSGSGSGTDFTLTISSLQPEDFATYYCQQWSFNPPTFGQGTKVEIKRTVAAPSVFIFPPSDEQLKSGTASVVCLLNNFYPREAKVQWKVDNALQSGNSQESVTEQDSKDSTYSLSSTLTLSKADYEKHKVYACEVTHQGLSSPVTKSFNRGEC
heavy: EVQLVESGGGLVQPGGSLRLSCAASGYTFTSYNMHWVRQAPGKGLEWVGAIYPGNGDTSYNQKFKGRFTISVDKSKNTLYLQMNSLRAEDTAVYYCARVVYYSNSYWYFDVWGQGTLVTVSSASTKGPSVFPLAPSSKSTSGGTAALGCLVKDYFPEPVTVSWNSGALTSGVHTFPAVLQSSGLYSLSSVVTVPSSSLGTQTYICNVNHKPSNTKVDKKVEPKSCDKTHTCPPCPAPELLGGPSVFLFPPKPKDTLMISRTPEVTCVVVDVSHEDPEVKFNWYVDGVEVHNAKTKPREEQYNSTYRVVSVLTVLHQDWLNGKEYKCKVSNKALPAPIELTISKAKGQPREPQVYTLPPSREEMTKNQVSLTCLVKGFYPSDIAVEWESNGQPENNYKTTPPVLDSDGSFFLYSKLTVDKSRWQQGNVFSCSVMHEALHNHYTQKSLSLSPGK
notes: copies: 2 + 2
The term EC50 (read off the curve) denotes the midpoint of the concentration-response curve. A high value points to a less potent agent. Consider B2, for which the concentration for a half-maximal effect (EC50 (read off the curve)) was about 0.6 µg/mL.
